Test results taken from the supplement of paper PMC10567573.

B1: WDFY2 (parent)
chain: FWNFKQMWDSKKIGLRQHHCRKCG
B2: CCND1 (parent)
chain: PEAEENKQIIRKHAQTFVALCATD

Variants of: B1
Assay: protein stability index of a GFP-peptide fusion (GPS, HEK-293T) (PSI 1-6); higher = more stable
Conditions: c terminus: a fixed tail appended
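Also: lentivirally expressed fusions sorted by FACS into six bins by GFP to DsRed ratio, PSI derived from sequencing read proportions per bin multiplied by bin number.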

Protein stability index: each site, then its substitutions
M7: S 2.57; H 2.48; T 2.11; E 2.82; P 2.06; V 1.71; I 1.92; Y 2.34; D 2.41; C 2.09; R 2.33; A 2.19; L 2; G 1.68; N 1.62; W 1.74; K 1.69; F 2.09; Q 2.21
K11: I 2.5; A 2.93; F 2.48; P 2.19; M 1.83; N 2.7; C 2.65; D 2.1; L 1.73; G 2.44; R 1.74; V 1.99; W 1.51; Y 2.71; Q 2.54; E 2.61; S 1.25; H 2.12; T 1.76
K5: D 1.96; L 1.83; H 1.66; V 2.33; F 1.38; C 2.66; P 1.98; R 1.24; E 2.22; I 1.7; T 1.5; Q 2.4; N 1.76; S 1.52; M 2.6; Y 1.24; W 1.38; G 1.5; A 1.81
K12: N 1.85; V 2.42; S 2.62; H 2.01; P 2.03; L 1.89; Y 1.53; R 1.71; I 2.06; Q 2.1; F 1.84; T 2.08; D 1.88; E 2.05; G 1.58; C 2.79; W 2.3; M 1.73; A 1.68
F1: A 2.86; H 2.66; N 2.32; G 2.32; L 1.44; P 2.99; T 2.14; Q 2.11; M 1.52; C 2.65; Y 1.52; D 2.59; W 2.25; K 2.11; S 2; E 3.02; R 2.01; V 2.86; I 2.08
F4: N 2.29; K 1.46; H 2.47; G 2.23; E 2.39; P 1.93; Y 1.99; R 2.33; I 1.51; L 1.94; M 2.26; C 2.36; S 2.12; D 2.27; A 1.61; T 2.3; V 2.33; W 2.26; Q 2.41
W2: S 1.42; M 2.39; V 3.04; D 2.78; H 2.32; K 2.04; C 2.19; F 1.61; N 2.63; A 1.86; Q 1.19; Y 2.25; L 1.93; R 2.61; E 3.29; G 1.8; I 2.23; T 2.12; P 2.58
I13: H 1.81; E 2.28; C 2.72; F 2.15; A 2.52; D 2.55; G 1.99
D9: C 1.2; S 1.28; V 3.81; Y 2.95; K 2.05; E 2.3; H 2.63; Q 1.84; R 1.73; N 1.81; F 1.54; T 1; G 1.77; P 2.43; W 1.81; I 2.56
S10: I 2.94; Q 2.65; L 1.67; P 2.17; V 1.78; T 1.73; F 1.72; E 1.72; R 1.53; K 2.04; Y 1.72; H 2.55; D 1.75; A 1.32; M 1.76; C 1.94
Q6: E 1.89; H 2.27; F 1.53; A 1.56; P 2.04; R 1.79; M 1.93; L 2.03; V 1.51; N 2.27; C 2.34; W 1.28; T 1.82; K 2.44; G 2.79; Y 1.6; D 1.91; I 1.68; S 1.85
N3: Y 1.91; M 1.35; S 3.29; P 1.85; A 1.22; I 1.84; K 1.7; D 2.05; T 1.8; G 2.28; V 3.37; L 1.42; R 1.42; F 2.05; E 2.12; H 1.77; Q 2.1; C 2.08; W 1.65
W8: L 2.59; A 2.12; D 3; F 2.25; S 2.14; K 2.69; H 2.79; Q 2.39; I 1.8; M 3.04; Y 2.04; N 3.72; E 3.3; G 2.48; V 2.22; P 2.16; R 2.58; T 2.07; C 2.34

Variants of: B2
Assay: as above
Conditions: c terminus: a fixed tail appended

Protein stability index, by site and new letter:
T23: P 3.07; L 2.35; S 2.48; M 2.94; V 2.87; I 2.38; C 2.64; Q 2.54; A 2.87; W 2.63; K 2.92; Y 2.47; G 2.64; E 2.21; F 1.75; R 2.48; H 2.64; N 2.94; D 3.22
D24: H 2.77; T 3.35; S 3.9; N 3.88; G 2.85; W 2.39; P 3.63; K 3.84; Q 3.8; R 2.7; I 2.15; V 2.54; M 2.93; C 2.71; L 2.79; E 2.33; A 3.27; Y 2.89; F 2.23
L20: P 4.79; F 4.21; Q 2.85; R 2.09; D 4.62; W 4.15; N 3.84; G 4.71; C 3.82; T 4.04; Y 2.66; H 3.21; E 4.8; M 2.11; V 2.87; I 3.33; A 3.3; S 4.43; K 2.59
A19: S 2.89; T 4.06; N 2.92; R 3.96; Y 3.64; P 4.92; V 4.04; M 2.55; W 3.06; Q 2.5
A22: C 2.15; V 2.52; L 2.72; R 3.16; K 3.66; F 2.63; Q 2.91; Y 3.02; E 2.96; H 3.38; G 3.37; I 2.95; P 4.49; M 2.67; S 3.19; W 2.09; N 4.43; T 2.87; D 3.87
C21: I 1.98; F 3.75; L 1.66; T 2.78; D 5.22; V 2.24; G 5.04; W 3.59; Y 2.96; K 5.07; M 3.28; A 4.05; N 5.27; H 4.37; Q 4.95; E 4.9; P 4.7; S 4.07; R 4.86
